# Data from the DeepSol protein solubility set.
# Experiment: soluble on expression in E. coli; label from the status in PepcDB or PDB records
row,Sequence,soluble on expression in E. coli
1,MSLGSKIVVTGATGNVGTSVVRLLSEDPEVGTVLGLARRIPDWSPAKTEWAAVDLASEQSDLTSHFADADAVVHLAWAFQPTHDPATTWRTNVLGSIRVFEAVAAAGVPALVHASSVGAYSPGPKNHAVDESWPTHGWPDAAYCREKAYLERALDTFERDHPGIRVVRMRPAFLFKRESASEQRRIFGGRFLPGPAARPELLPFLPDVPGLRVQALHTDDAARAYRLAVRSADARGAFNLAAEPPVDAELLGELLGVRPVRLPRAAARSAIAAAWGMRLLPASPHLFDAVLRLPVMDCTRARVELGWGATRTATEVLEEFLRGLRQGAGADTEGHHHHHH,soluble
2,ASEEEKAWLMASRQQLAKETSNFGFSLLRKISMRHDGNMVFSPFGMSLAMTGLMLGATGPTETQIKRGLHLQALKPTKPGLLPSLFKGLRETLSRNLELGLTQGSFAFIHKDFDVKETFFNLSKRYFDTECVPMNFRNASQAKRLMNHYINKETRGKIPKLFDEINPETKLILVDYILFKGKWLTPFDPVFTEVDTFHLDKYKTIKVPMMYGAGKFASTFDKNFRCHVLKLPYQGNATMLVVLMEKMGDHLALEDYLTTDLVETWLRNMKTRNMEVFFPKFKLDQKYEMHELLRQMGIRRIFSPFADLSELSATGRNLQVSRVLQRTVIEVDERGTEAVAGILSEITAYSMPPVIKVDRPFHFMIYEETSGMLLFLGRVVNPTLL,soluble
3,MSLDRSNTVELHAAGAQSAQGARPDQEDEYIILTPGGSPNEIGDSIAFFAVFDGHGTGIVSNHAKEHIPLLLFESDEFRSGNYERAMQAAIDKEDELLLQGFREGQNFFATSGSTASLALVDMKNGVLVVGNIGDSHILMAERDPENGQVKSIERLTTSHKPESADEKARIEKAGGHVHSHHDISRIGSLNMSRALGDLQYKTPLISAAAAPKTEGQKFACAPDPQNVSSQDGAQAGTGRDDFITVEMSFRRIDLHKEKQYLLALTTDGVTNALDDGKIMNGIAEMFNTGSKADEVARKVVDQAASTEYADNATCVTVFLNGTEARLAEGHHHHHH,soluble
4,MSEDELIIIENLKKIYKIKNVEFPALRGINLKIYKGEFLGIAGPSGSGKTTLLDMIGLLDSPTEGKIIIDKKDVTKFDEDKRAIFRRKNIGFVFQSYNLISYLTVLENVELALAAAGYPVSKRKAKAEEILSMIPGMLELKNKKPNELSAGQQQRVAIARALANDPKILIADEPTANLDSKTGEAIVELLRKLNEEKGVTIVMATHDPMMMKYVDRLVYIRDGLIEKEVIQK,soluble
5,MSLDFAARQAAFADALLHPDRPVPDGVINARGEPDAARFAVYRNNVFVGLTKALAQRFPVTERLVGSEFFAAMARAYVQDHKPASPLIMEYGDDFPDFVAAFEPAGTLVYLPDVARLEAAWTEAYHAADSAPLDLAAFGAVAPEMLSDLRLLPHPSARLILSNFPVGSIWSAHQEAVVSPVSDWGGQAVLVVRPEMSVNVHVLPPRDAVFAAALFNAATLGEAAEAAFAAAPEFDFGTALVGLAGIGAFRAFQQYKGNEGHHHHHH,not soluble
6,MPDGTIDGGHPQRPASPRLRSPLLRLATWNVNSIRTRLDRVLDWLGRADVDVLAMQETKCPDGQFPALPLFELGYDVAHVGFDQWNGVAIASRVGLDDVRVGFDGQPSWSGKPEVAATTEARALGATCGGIRVWSLYVPNGRALDDPHYTYKLDWLAALRDTAEGWLRDDPAAPIALMGDWNIAPTDDDVWSTEFFAGCTHVSEPERKAFNAIVDAQFTDVVRPFTPGPGVYTYWDYTQLRFPKKQGMRIDFILGSPALAARVMDAQIVREERKGKAPSDHAPVLVDLHAG,not soluble
7,MRYSSRMPGSVMPGAGAHPRIPQVQTSVANSQILGYLGRALSLEFTAGQHYLAQASLAKFRQEISYAEGFITLANEEFQHANLITDRMVAQGALPAGSVLRPAGSANNIAEALKSCEEREIALIQLYTEATQYCANMGAQEDHALFSRLLEEEQSQLMRVQAWLQDYFQMMANTYQPDRSFV,not soluble
8,MAVKHASAPKAYINITGLGFAKLTKEGAELKYSDITKTRGLQKIGVETGGELKTAYADGGPIESGNTDGEGKISLQMHAFPKEIRKIVFNEDYDEDGVYEEKQGKQNNYVAVWFRQERRDGTFRTVLLPKVMFTNPKIDGETAEKDWDFSSEEVEGEALFPLVDNKKSVRKYIFDSANMTNHGGDGEKGEEAFLKKILGEEYTGNVTEDNEETLLEHHHHHH,soluble
9,MQSAELKQFVVDKIDDLKARDVVVIDVSNQSNITDYMVICSGTSKTHVKAIAENLVIEAKAAGIPPIGIEGRDSSEWVLVDMGNVILHVMQDQTRDFYQLEKLWSEKQA,soluble
10,MKTLVELPLLPLRDVVVYPHMVIPLFVGREKSIEALEAAMTGDKQILLLAQKNPADDDPGEDGLYRMGTVATVLQLLKLPDGTVKVLVEGEQRGQVERFIEEEGHIRAAVQAIDDANVGEREAEVFTRSLLSQFEQYVQLGKKVPAEVLSSLNSIDEPSRLVDTMAAHMALKIEQKQDILEITDLSSRVEHVLALLDAEIDLLQVEKRIRGRVKKQMERSQREYYLNEQMKAIQKELGDIDEGHNEVEELKKRIDAAGLTKEAHTKATAELNKLKQMSPMSAEATVVRSYIDWLLNVPWKAESKVRHDLAKAEDILDADHYGLEEVKERILEYLAVQKRVKKLKGPVLCLVGPPGVGKTSLAESIARATNRKFVRMALGGVRDEAEIRGHRRTYIGSMPGRLIQKMTKVGVRNPLFLLDEIDKMGSDMRGDPASALLEVLDPEQNHNFNDHYLEVDYDLSDVMFLCTANSMNIPAPLLDRMEVIRLPGYTEDEKVNIAAKYLIPKQVQANGLKKGELTFEEGALRDIIRYYTREAGVRSLERQIAKVCRKAVKEHAKLKRIQAVVSSETLENYLGVRKFRYGLAEQQDQIGQVTGLAWTQVGGELLTIEAAVVPGKGQLTKTGSLGDVMAESITAALTVVRSRAQSLGIAADFHEKRDIHIHVPEGATPKDGPSAGIGMCTALVSAITQIPVRADVAMTGEITLRGQVLAIGGLKEKLLAAHRGGIKTVIIPEENVRDLKEIPDNIKSDLVIKPVKWIDEVLQIALQYAPEPLPDAAPEMVAKDEKREPDSKERIST,not soluble
11,GIEIVNRKAVWYLTSEIKETETGIEVSAGELHKGDEEVFPVEEVSFDLTPDDTYPVEYMLYLHMNVQTKKVSWSLCKAYLDGEGYCDYQGNERLIMYPVSVTVFPNGTREGTIFLYEKEDREPDRKPPVIVEPQPVGEIGTPDIDE,soluble
12,MDIHSHQQALDAYENVLEHLREKHIRITETRKAIISYMIQSTEHPSADKIYRDLQPNFPNMSLATVYNNLKVLVDEGFVSELKISNDLTTYYDFMGHQHVNVVCEICGKIADFMDVDVMDIAKEAHEQTGYKVTRIPVIAYGICPDCQAKDQPDF,not soluble
13,MRKLTLPKDFLWGGAVAAHQVEGGWNKDGKGPSICDVLTGGAHGVPREITQNVVAGKYYPNHEAVDFYGHYKEDIRLFAEMGFKCFRTSIAWTRIFPNGDESQPNEAGLKFYDDMFDELLKYNIEPVITLSHFEMPLHLVQHYGGWTNRKVVDFFVRFAEVVFERYKHKVKYWMTFNEINNQRNWRAPLFGYCCSGVVYTEHENPEETMYQVLHHQFVASALAVKAARRINPQMKVGCMLAMVALYPFSCKPEDVMFAQESMRERYVFTDVQLRGYYPSYVLNEWERRGFNIKMEDGDLEVLREGTCDYLGFSYYMTNAVKAEGGSGDAISGFEGSVPNPYVKASDWGWQIDPVGLRYSLCELYERYQKPLFIVENGFGAYDKVEEDGSINDDYRIDYLRAHIEEMKKAVTYDGVDLMGYTPWGCIDCVSFTTGQYSKRYGFIYVNKHDDGTGDMSRSRKKSFNWYKEVIASNGEKL,not soluble
14,VDNDKLKDGYVNFINILNLDDMYVKKMREWRNQDFVRQRMFNREIITEEEHARFIEHLKDNREKNYYVCFLGNKPFGVLYYEFFRKNNNLEFGYYLTEQEFINSGLGIVMEYSLLNHAFYDLKVNKVFCRTLSSNEKVVSLHMNFGFETEGILRQHVRINDGYEDITIQAINERAWAQNRPKIEKYLRVIVDVDKIGPITGRS,soluble
15,IALENTIEQRLAADVATLVSAARVEKGRLVMPEHLPVEEFNLPEAKVLGYIYDQNGDLLWRSTSAADESINYTPRYDGRGNEFHTTRDAKGEEFFVFDVEIDLLRGKQAAYSIVTMQSVSEFESLLKGFREQL,not soluble
16,MAHHHHHHMGGGGSIPRKKATSARQVSTDRSVRRLQTKRRVGEPRFNGIGYVTIPLCIQEDLPPPPEDDDAPDDSTRKFAWFVEDLDMPGEWELYPPDACERLDEARRSNMTECLVVVKKRMCTVNLVKMEHLCAGSNARPRQVKRVEVEVSNGTTTYQEKRKVPNDPFAEDSPRETPSPMELFESEENAVHDVGSATTTKAEPEKVPNLVRSILTEKTTSYAMSLTSNGTTVFSGTKAQMLRWDLKTAEVTAEFDVQDSVVLSNALSHDERHVVAGRSDCTASMHSVDGSTSCVFSGHQRKVYGVDFLLGDDRVATASMDCTVRIWDASTSTCVQTIGCSAASVFTVVTSDLNNHFALSAGDDNIIYAHDLRSGGDCVIDRFIDHASTVWCCALRNDEQVFASCGIDGVIRVWDIRNSSSPTLLLRHHEKPVHMVKFTPRGRAILSCGRDDNMRLTDAMTGEPLWRAVAHRRFVYRIAFSKEKKFILSSGGDHRVNVWNYDYIDRM,not soluble
17,MGSDKIHHHHHHLKAIKYGVTREHIREFKVALTDGKVYKFGSKSVKSSSGYSLNDLIIGSEGTLGVITEAVLRLYPRPKHALNAIIPFPTLDDAIESVPAILASGVEYMGRKVLNLWEKYYDATFPIKEGDGFIILGIDSFTASDAEAQLAQALEAVKPFHALKETVLNAESDEAKTIWDAREKLLLAIQKSTPKMDEVDVSVPINKIPLVLHRIEELEKEEDMRIPNFGHAGDGNLHIYLCSDDMTDEEFAKKGDNVISELYKTAKSVDGNMSGEHGVGYARQNYYEDFYGKDYTDLLRKVKGLFDPKGILNPDKIFPLD,not soluble
18,SVGGGGSGGGLLENANPLIYERSGERPVTAGEEDEEVPDSIDAREIFDLIRSINDPEHPLTLEELNVVEQVRIQVSDPESTVAVAFTPTIPHCSMATLIGLSIKVKLLRSLPQRFKMDVHITPGTHASEHAVNKQLADKERVAAALENTHLLEVVNQCLSARS,soluble
19,MGMDQSRLMSGAAGGALVLMGLKKRGVLGLLMTVGGGYLAYKAATGKDPVMEAAGLTGSAGAAKPIFVEHSIVIDRPAQQVYDYWRKLENLPQIMSHLESVTVLDDKRSRWVAKAPLGTHVEWEAEVVNDKPGERIGWHSLPGATVDNAGSVQFESLPDDKTRVHVALSYRPPAGPLGAAVAKLFGEEPSQQIAEDLQKFKATFEGLEHHHHHH,soluble
20,MGSDKIHHHHHHMATETRVASLPSIDAAALAAIEGCALVDLLLPDTNGVLRGKRVTREALDKVYRDGVCLPMSLIATDITGNTVEETGLGYAIGDADRICRPIAGSLRPVPWAPQPMAQLLLAMHTPNGALFEVAPRAVLQRVVQGFAALGLTPVIAVELEFYLFDAMADAQGRPQTPRDAHTGERNTSTQVYALQDLDDHRSFTDAVTAACRQQGIPADTAVAEYAPGQFEINLQHRADAVAACDEALLLKRTIKAIAQQQHLLASFMAKPFAGQAGSGLHVHVSLLDAAGHNVLHGTADAPAAALRHAIAGLQRHADASLLLFAPHANSYRRFVPNAFVPLDASWGFNNRTVALRIPHSDAHNTRIEHRIAGADANPYLVAAAVLAAMLDGLQHPGDPTAPVQGNAYAQATFTPRTWQGAVDAFLRSDFIATQLGTQFQHVFGQQKQRELLDYQALVPDLDYARYLRTV,not soluble
21,GQLVESGGGSVQAGGSLRLSCAASGIDSSSYCMGWFRQRPGKEREGVARINGLGGVKTAYADSVKDRFTISRDNAENTVYLQMNSLKPEDTAIYYCAAKFSPGYCGGSWSNFGYWGQGTQVTVSSH,soluble
